Results reported in patent publication US20200317802A1 (Merck KGaA, published 2020).
Where a chain is given by its changes, count along the chain named. One block for each binder: values may come before it.

Key:
[1] = biological target: T1, recombinant human ADAMTS5 (R&D Systems cat #2198-AD) (human, UniProt Q9UNA0 262-622, limits assumed); assay: cell-based or functional assay
T1 sequence: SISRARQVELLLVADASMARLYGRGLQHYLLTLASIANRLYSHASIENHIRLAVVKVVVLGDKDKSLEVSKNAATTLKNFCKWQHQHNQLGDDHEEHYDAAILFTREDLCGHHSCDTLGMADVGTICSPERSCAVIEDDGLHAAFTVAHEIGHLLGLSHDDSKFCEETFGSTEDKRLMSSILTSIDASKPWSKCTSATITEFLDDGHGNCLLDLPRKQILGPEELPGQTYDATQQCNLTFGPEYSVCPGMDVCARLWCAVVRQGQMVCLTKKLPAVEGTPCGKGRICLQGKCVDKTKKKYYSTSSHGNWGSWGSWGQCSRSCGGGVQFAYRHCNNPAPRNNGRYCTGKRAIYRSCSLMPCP

[2] = biological target: T1, recombinant human ADAMTS5 (R&D Systems …); assay: cell-based or functional assay; remark: listed apart in the source
[3] = biological target: T2, cynomolgus monkey recombinant ADAMTS5 (cynomolgus monkey, UniProt Q9UNA0 262-622 (human entry), limits assumed); assay: cell-based or functional assay
T2 chain: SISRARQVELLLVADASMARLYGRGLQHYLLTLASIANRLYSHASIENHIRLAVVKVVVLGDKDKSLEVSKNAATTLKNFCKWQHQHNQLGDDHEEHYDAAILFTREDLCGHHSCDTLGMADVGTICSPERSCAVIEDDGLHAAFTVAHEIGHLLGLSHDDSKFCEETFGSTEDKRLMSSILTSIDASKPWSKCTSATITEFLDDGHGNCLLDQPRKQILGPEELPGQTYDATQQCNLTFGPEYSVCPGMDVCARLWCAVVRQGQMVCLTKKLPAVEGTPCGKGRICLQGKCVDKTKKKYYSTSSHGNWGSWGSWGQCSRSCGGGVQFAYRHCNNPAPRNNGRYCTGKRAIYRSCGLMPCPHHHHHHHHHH

[4] = biological target: T3, guinea pig recombinant ADAMTS5 (guinea pig); assay: cell-based or functional assay
T3 chain: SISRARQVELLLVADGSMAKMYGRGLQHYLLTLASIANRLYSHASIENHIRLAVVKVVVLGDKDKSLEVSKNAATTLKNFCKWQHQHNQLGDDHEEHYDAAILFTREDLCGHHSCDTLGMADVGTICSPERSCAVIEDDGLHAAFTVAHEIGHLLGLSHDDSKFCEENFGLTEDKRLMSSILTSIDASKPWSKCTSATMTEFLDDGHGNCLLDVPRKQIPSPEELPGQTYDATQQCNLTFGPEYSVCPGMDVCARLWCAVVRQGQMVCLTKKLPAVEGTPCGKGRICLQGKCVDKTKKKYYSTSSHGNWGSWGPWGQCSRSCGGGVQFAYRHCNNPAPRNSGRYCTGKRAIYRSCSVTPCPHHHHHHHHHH

[5] = biological target: T1, recombinant human ADAMTS5 (R&D Systems …); assay: SPR off-rate, Biacore T100, ADAMTS5 immobilised, experiment 1
Description: (§1) Species cross-reactivity was initially evaluated via SPR-based off-rate analysis on a Biacore T100 instrument. Nanobodies were tested for binding to human, cynomolgus monkey (“cyno”), guinea pig, mouse, and bovine ADAMTS5. To this end, recombinant ADAMTS5 was immobilized onto a CM5 chip via amine coupling using EDC and NHS. Purified Nanobodies were injected for 2 minutes at a concentration of 100 nM and allowed to dissociate for 15 min at a flow rate of 45 ul/min. Off-rate for each individual Nanobody was determined by fitting a 1:1 interaction model (Langmuir model) onto the individual dissociation curves using the BIA Evaluation software. As a reference, off-rates on human ADAMTS5 were determined in each experiment.

[6] = biological target: T1, recombinant human ADAMTS5 (R&D Systems …); assay: cell-based or functional assay; remark: listed apart in the source
[7] = biological target: T1, recombinant human ADAMTS5 (R&D Systems …); assay: cell-based or functional assay; remark: listed apart in the source
[8] = biological target: T1, recombinant human ADAMTS5 (R&D Systems …); assay: binding ELISA, periplasmic extract on coated human ADAMTS5
Description: In a first step, periplasmic extracts were tested for binding to recombinant human ADAMTS5 by binding ELISA. In brief, recombinant human ADAMTS5 (R&D Systems, Minneapolis, US; cat #2198-AD) at a concentration of 1 μg/ml was coated on 384-well MaxiSorp plates (Nunc, Wiesbaden, Germany). Wells were blocked with a casein solution (1%). After addition of a 10-fold dilution of the periplasmic extracts, Nanobody binding was detected using a mouse anti-Flag-HRP conjugate (Sigma, St. Louis, US) and a subsequent enzymatic reaction in the presence of the substrate esTMB (3,3′,5,5′-tetramentylbenzidine) (SDT, Brussels, Belgium). Clones showing ELISA signals higher than the sum of the average signal of the irrelevant Nanobody controls and 3 times the standard deviation of the irrelevant Nanobody controls were considered to encode positive human ADAMTS5 binding Nanobodies.

[9] = biological target: T1, recombinant human ADAMTS5 (R&D Systems …); assay: SPR off-rate, Biacore T100, ADAMTS5 immobilised, experiment 2
Description: as §1

[10] = biological target: T4, mouse recombinant ADAMTS5 (mouse, UniProt Q9R001 262-622, limits assumed); assay: as above
T4 construct: in house, HEK293, His tag in the entry
T4 sequence: T3 chain with G16S, K20R, G61T, K65T, L171T, M199I, V214L, P220L, S221G, I286V
Description: as §1

- Human AlphaLISA % inhibition [1]: 100%
- Human AlphaLISA IC50 [1]: 150 pM
- AlphaLISA potency IC50, Human [2]: 150 pM
- AlphaLISA potency IC50, Cyno [3]: 190 pM
- AlphaLISA potency IC50, Guinea pig [4]: 530 pM
- koff [5]: 0.00014 s⁻¹
- FRET assay % inh, periplasmic extract [6]: 104%
- FRET assay vi (U/min), periplasmic extract [6]: -1 U/min
- AlphaLISA IC50, - HSA [7]: 150 pM
- binding ELISA (OD 450 nm) [8]: 1.75 OD 450 nm
- koff [9]: 0.00023 s⁻¹
- koff [10]: 0.00044 s⁻¹
B1: Nanobody 2A12 (VHH)
VHH: EVQLVESGGGLVQAGGSLRLSCAASGRTFSSYAMGWFRQAPGKERDFVAGISRSAGRTYYVDSVKGRFTISRDSAKNTVYLQMNRLKPEDTAVYYCAADLDPNRIFSRDEAAYWGQGTLVTVSS
notes: tagged as tested (anti-Flag detection, IMAC); also called 02A12

- Human AlphaLISA % inhibition [1]: 100%
- Human AlphaLISA IC50 [1]: 75 pM
- AlphaLISA potency IC50, Human [2]: 75 pM
- AlphaLISA potency IC50, Cyno [3]: 81 pM
- AlphaLISA potency IC50, Guinea pig [4]: 300 pM
- koff [5]: 3.3e-05 s⁻¹
- FRET assay % inh, periplasmic extract [6]: 103%
- FRET assay vi (U/min), periplasmic extract [6]: -1 U/min
- AlphaLISA IC50, - HSA [7]: 75 pM
- binding ELISA (OD 450 nm) [8]: 1.84 OD 450 nm
- koff [9]: 6.5e-05 s⁻¹
- koff [10]: 0.00029 s⁻¹
B2: Nanobody 2F03 (VHH)
VHH: B1 VHH with F29V, Q39L, D46E, G56E, V64L, Q82H, D109E, A111Y
notes: tagged as tested (anti-Flag detection, IMAC); also called 02F03; 2F3
